Patent US20060140968A1 (GREEN PEPTIDE, published 2006)

T1: HLA-A0201 (human, UniProt P04439 25-302 at identity 0.94))
T1 MHC heavy: not shown

T2: HLA-A2402 (human, UniProt P04439-2 25-302 at identity 0.92))
T2 MHC heavy: not shown


Key:
[1] = molecular target: T1, HLA-A0201; assay: cell-based or functional assay
[2] = molecular target: T2, HLA-A2402; assay: cell-based or functional assay

| Binder | IFN-γ in the supernatant (pg/ml) produced by OK-CTL on HLA-A0201-positive T2 cells pulsed with 10 µM peptide, value with no peptide subtracted [1] | IFN-γ in the supernatant (pg/ml) produced by KE-4CTL on HLA-A2402-transfected VA-13 cells pulsed with 10 µM peptide (no peptide: 677) [2] |
| --- | --- | --- |
| LFEKAVKDYI [SART-3 peptide "172-181" Leu-Phe-Glu-Lys-Ala-Val-Lys-Asp-Tyr-Ile] | – | 830 pg/mL |
| NYNKALQQL [SART-3 peptide "284-292" Asn-Tyr-Asn-Lys-Ala-Leu-Gln-Gln-Leu] | – | 794 pg/mL |
| VYDYNCHVDL [SART-3 peptide "109-118" Val-Tyr-Asp-Tyr-Asn-Cys-His-Val-Asp-Leu] | – | 928 pg/mL |
| SLFRRQLAI [SART-3 peptide "249-257"] | 209 pg/mL | – |
| WLHDEISMA [SART-3 peptide "152-160"] | 162 pg/mL | – |

Next, values leading:

| IFN-γ in the supernatant (pg/ml) produced by OK-CTL on HLA-A0201-positive T2 cells pulsed with 10 µM peptide, value with no peptide subtracted [1] | IFN-γ in the supernatant (pg/ml) produced by KE-4CTL on HLA-A2402-transfected VA-13 cells pulsed with 10 µM peptide (no peptide: 677) [2] | Binder |
| --- | --- | --- |
| 190 pg/mL | – | LLQAEAPRL [SART-3 peptide "302-310"] |
| 122 pg/mL | – | LLAMERHGV [SART-3 peptide "386-394"] |
| – | 880 pg/mL | AYIDFEMKI [SART-3 peptide "315-323" Ala-Tyr-Ile-Asp-Phe-Glu-Met-Lys-Ile] |
| – | 731 pg/mL | DYVEIWQAYL [SART-3 peptide "416-425"] |
| 231 pg/mL | – | RLAEYQAYI [SART-3 peptide "309-317"] |
| – | 833 pg/mL | DYLRRRVDF [SART-3 peptide "426-434" Asp-Tyr-Leu-Arg-Arg-Arg-Val-Asp-Phe] |
| – | 754 pg/mL | AFTRALEYL [SART-3 peptide "448-456" Ala-Phe-Thr-Arg-Ala-Leu-Glu-Tyr-Leu] |
